For test [1], the target named is TGF-α (UniProt P01135). As to conditions: Fc fusion.
Target sequence in this assay (P01135 40-89): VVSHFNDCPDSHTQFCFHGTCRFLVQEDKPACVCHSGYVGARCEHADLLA
For test [2], the target named is NRG1-β (UniProt Q02297). The following applies: Fc fusion.
Target sequence in this assay (Q02297 other isoform, or with tags, fused parts or gaps): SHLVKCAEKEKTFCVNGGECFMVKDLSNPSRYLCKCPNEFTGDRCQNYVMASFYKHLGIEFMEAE
Test [3] addresses HB-EGF (UniProt Q99075). In words: biotin-ligand binding. The following applies: Fc fusion.
The target of test [4] is TGF-α (UniProt P01135). The test is described as follows: biotin-ligand binding. The following applies: Fc fusion.
Target sequence in this assay (P01135 40-89): as the sequence (P01135 40-89) above
The target of test [5] is NRG1-β (UniProt Q02297). In words: 125I-NRG1-β saturation binding, heterodimer immobilised on anti-Fc coated plate.
Target sequence in this assay (Q02297 other isoform, or with tags, fused parts or gaps limits assumed): as the sequence (Q02297 other isoform, or with tags, fused parts or gaps) above
The target in test [6] is TGF-α (UniProt P01135). In words: 125I-TGF-a saturation binding, heterodimer immobilised on anti-Fc coated plate; not saturated at 100 nM.
Target sequence in this assay (P01135 40-89 limits assumed): as the sequence (P01135 40-89) above
Test [7] has as its target EGF (UniProt P01133). The test is described as follows: Eu-EGF competition. As to conditions: Fc fusion.
Test [8] addresses EGF (UniProt P01133). In words: Eu-ligand saturation binding. The following applies: Fc fusion.

Where “and” joins values, the source holds several entries; their conditions need not be identical. Identical values can stand only once. Like-named read-outs stand apart in the source and are kept apart here. A value given as a limit tells only on which side of the number the result lay.

Chain of EGF (P01133 971-1023): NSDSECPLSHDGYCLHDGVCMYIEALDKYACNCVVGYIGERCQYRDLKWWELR
Chain of HB-EGF (Q99075 63-148): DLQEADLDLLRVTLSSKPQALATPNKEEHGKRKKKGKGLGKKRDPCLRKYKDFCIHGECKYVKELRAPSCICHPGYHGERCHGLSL

A word on the Kd: it is the equilibrium constant for the complex coming apart. A lower Kd goes with a tighter complex. Turning to “EGFRT15S:Fc homodimer (from UniProt P00533 25-645)”, in test [1], the equilibrium dissociation constant (Kd) came out at 1.7 nM. Take HER3:Fc (from UniProt P21860 20-643): the dissociation constant (Kd) in test [2] is 17.1 nM and 17 nM.

In the case of “RB222 (from UniProt P00533 25-645; P21860 20-643)”, the values for the Kd in test [3] and in test [4] were 1.58 nM and 42.6 nM, respectively. On to “RB222 (from UniProt P00533 25-645; P21860 20-643) (Fc fusion)”, for which the results for the Kd in test [5] and in test [6] were 1.6 nM and > 30 nM, respectively. As usually defined, the Ki is the dissociation constant of the complex between target and ligand, obtained from inhibition or displacement. Lower therefore signals a stronger hold on the target. In turn, “RB242 (from UniProt P00533 25-645; P21860 20-643)” gave a Ki in test [7] of 0.89 nM. The same substance yielded a Kd in test [8] of 0.77 nM.

The values above are taken from US20100278801A1.
